Experiments:
[1] = purified protein yield per well (BCA); higher = higher soluble expression
Procedure, shortened: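 On an OT-2 robot, lysed cells were processed by binding protein to Ni-charged magnetic beads and releasing it with SUMO protease. Expression took place in E. coli C41(DE3), in 2 mL autoinduction cultures with 100 µg/mL kanamycin, for 2 h at 37 °C followed by 40 h at 18 °C. The Pierce Rapid Gold BCA kit was used to quantify purified protein yield in each well, with values under 25 ug (0.1 mg/mL) below the detection threshold.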

[2] = melting temperature (DSF); higher = more thermostable
Protocol: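 Candidate PET hydrolases were expressed in E. coli C41(DE3) in 2 mL autoinduction cultures in 24-deep-well plates, Ni-bead purified and released by SUMO protease cleavage on an OT-2 robot. Yield per well was measured by BCA; values below 25 ug (0.1 mg/mL) are below the detection threshold. Melting temperature was measured by differential scanning fluorimetry with Sypro Orange, ramping from 25 C at 0.3 C/step.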

[3] = PET hydrolysis, aromatic products released after 48 h (umol product/mg enzyme); higher = more PET depolymerization activity
Protocol: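 HTP-purified, SUMO-cleaved, tagless PET hydrolase candidates (5 ug, 1.43 mg/g PET) were incubated 48 h without shaking with 3.5 mg amorphous PET film (aFilm) or crystalline PET powder (cryPow) in 0.5 mL buffer: NaCitrate pH 4.5/5.5, NaPhosphate pH 6.5/7.5, glycine pH 8.5. Incubation was at 40 or 60 C. Aromatic products (TPA, MHET, BHET) in the supernatant were quantified by UV absorbance at 260/280 nm relative to buffer blanks and expressed per mg enzyme. LCC-ICCG was the positive control on every plate.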

FSATGPSAPCSNCTRGPAPTVTALKASTGPFTTAKFSVSGFLKGYGDSTVYYPTNTTGKMGAIAVIPGYLSYESSIDWWGPRLASHGFVVMTMNTKTIYDQPDSRASQLSEALDYLIAQSKSSSSPLYNKIDSTRLGAIGWSMGGGGSLKLATQRSINAIIPQAPWYLGSSAFSGIKTPTLILACSADTVAPVAQHASPFYNQIPNSTPKAFLEIYGGSHFCANSGYPNQDMLGMYGIAWMKRFIDFDSRYSQFLCGPNHESDYAISDYRENCPY [ESM055]
Conditions | melting temperature [C] | purified protein yield per well [µg]
[1] | – | 28.9
[2] | 55.3 | –

QVAIFQESFSSGLGGFTATGTVGTSTGAARMEGCYGCTDGAITSGAISTQGFTGLSLSFDRVTSGLDSGEAGIAEYSTNGSTWTAVESTRVTTNGRVTFSLPDTAAGQAALRLRFRIDASLSSETYTVDNVQLTGIPGDTGTNPYAKGPNPTTSMLESSTGPFTYATTNVSEFSASGYGGGTIYHPTNVAGPFAAIAISPGYTGTKSTMSWWGERLASHGFVVITIDTNSIYDQPYERAPQLMAALRQLVTFSNTSSHPIYRKVDPNRLGVMGHSMGGGGTLIAARDNPTLKAAIPLAPWNTSTDFSSVRVPTLVVACESDTIAPVSQHASPFYNSIPASATKKAFMEMNNGDHFCVMTGNDYTRIMGKYGVAWMKRFMDNDTRYSPFLCGAPHQADLSNIQISEYRENCPY [DP048]
Conditions | purified protein yield per well [µg]
[1] | 56

PET hydrolysis, [3], substrate: cryPow
Conditions | pH 5.5 | pH 6.5 | pH 7.5 | pH 8.5
40 °C | < 3 | < 3 | < 3 | < 3
60 °C | < 3 | < 3 | < 3 | < 3

ADNPYERGPAPTTASIEAVRGPYAVSEYRVSSLAATGFGGGTIHYPTTTADGTFGAIAVSPGYTGTESTIAWLGPRLASQGFVVFTIETLTLFDQPDSRGRQLLAALDHLTRVSPLRGRVDSSRLGVMGHSMGGGGSLEAAKSRPSLQAAVPLTPWNLDKTWPELRTPTLVVGADGDSIAPVRSHAEPFYESLPSSLDRAYLELNGASHFAPNSPDTTIAKYSIAWLKRFIDNDTRYEQFLCPLPRPSLTIEEYRGNCPHTS [TEP138]
Conditions | melting temperature [C] | purified protein yield per well [µg]
[1] | – | 28
[2] | 36.1 | –

VPVVPAQQENPYQRGPDPTPESVEAPRGSFAIEKATIARGSVQGFGGGTIYYPTDTAEGTFGAVAISPGFTESQSAISWYGERLATQGFVVFTIDTNGGLDQPDSRADQLLAALDFLTGSSEVKDRIDASRLGVLGHSMGGGGSLSAAKKRPALQAAVPLAPWHTNSNWSDVTVPTLIVGAENDAVAPVGMHAEPFYAGLTKAPEKAYLELKGADHFVTNSPNTVIAKSTLSWLKRFIDDDTRYDQFLCPPPKPDNDISEYRDTCPN [DP051]
Conditions | purified protein yield per well [µg]
[1] | < 25

[3], substrate: cryPow, 40 °C
Conditions | PET hydrolysis
pH 5.5 | < 3
pH 6.5 | < 3
pH 7.5 | < 3
pH 8.5 | < 3

DTGSHERGPDPTEQALEARSGPFDTDDERVSSLGASGFGGGTIYYPEDTSEGDFGAVALAPGYTASSTSYSSLAERIASHGFVVLAFDTNTRYDQPNSRGRQMESALEYLTEDSDVTDRIDTDRQAVSGHSMGGGGTLAAADDNPDLQAAVPLTPWHTQKSWSGMQVPTMIIGAENDSIASVRSHSIRFYESLPGSLEKGYAEVDGASHFAPNSNDDTVAKYTITWLKRFVDNDTRYEQFLCPPPDSGGWGDDLSDYRDSCPTG [DP052]
Conditions | purified protein yield per well [µg]
[1] | 36

[3], substrate: cryPow, 40 °C
Conditions | PET hydrolysis
pH 5.5 | < 3
pH 6.5 | < 3
pH 7.5 | < 3
pH 8.5 | < 3

ATPARPASVAAAPAAVQRAADNPYQRGPAPTEASITAEKGPFAVETIPVPAGSGTGFNKGTVYAPTDTSEGTFGAIVVSPGFVSPEAWISWYGPRLASQGFVVMTLETNSLVDVPASRGDQLLAALDWLTGKSSVKNRIDASRTAVMGHSMGGGGTLEAANKRPSLKADIPLAPWDTNYNFPNIKTPTLIMGADNDLIAPASSMAESYYNNITTAPEKAYLLLKNAGHMTFVSPNTTIAKYSIAWMKRFVDNDTRYDQFLCPAPKPDANIAKYLDTCPNG [DP016]
Conditions | purified protein yield per well [µg]
[1] | 83

PET hydrolysis, [3], substrate: cryPow
Conditions | pH 5.5 | pH 6.5 | pH 7.5 | pH 8.5
40 °C | 4 | 14 | 17 | 4
60 °C | 10 | 10 | 7 | < 3

DQIGQAPTASNITGDGSFAVTSSAVSGQTGFGGGTVYYPTQTGTYPVVAIMPGFLELWDAIKWMGPRLASWGYVVVGVNPNSVFDLPDSRGSQLLAALNWAVGSAPSAVQSRADGTRRGVVGYSMGGGGTLEALSRDTSGKVLAGVAFSPWDTNQNWSTVRQPEFIVGAQNDTVAPPAQHAIPFYNSLAGPKTYVELAGADHLWPTSDNPTGSRAMVSWLKRWLNSDSRFTPFTCGFTGSAISASMSNAC [ESM047]
Conditions | purified protein yield per well [µg]
[1] | 48.3

[3], substrate: cryPow, 40 °C
Conditions | PET hydrolysis
pH 4.5 | 20
pH 5.5 | 55
pH 6.5 | 47
pH 7.5 | 8

ADNPYERGPAPTNASIEAVRGPYAVSQATVSSLAVTGFGGGTIYYPTTTSDGTFGAVAISPGYTGTQSSIAWLGPRLASQGFVVFTIDTNTTLDQPDSRGRQLLAALDYLTRVSPLRTRVDSTRLGVMGHSMGGGGSLEAAKSRPSLQAAIPLTPWNLDKTWPEIQTPTLIVGADGDSIAPVSSHAEPFYENLPSSLDRAYLELNGASHFAPNSSNTTIAKYSISWLKRFIDNDTRYEQFLCPLPRPSLTIEEYRGNCPHQS [TEP188]
Conditions | purified protein yield per well [µg]
[1] | 72.2

PET hydrolysis, [3], substrate: cryPow
Conditions | pH 4.5 | pH 5.5 | pH 6.5 | pH 7.5
40 °C | < 3 | < 3 | < 3 | < 3
60 °C | < 3 | < 3 | < 3 | < 3

DTNPFQRGPAPTEASVSAQKGPFATAQVNVPANSGEGFNDGTIYYPTDTSQGTFGAIAVMPGFLSPQDWIRWYGPTLASQGFVVMTLDSKGFIDSPTARGNQLLAALDYLTTKSKVVDRIDTSRLGVVGWSMGGGGALESTYNRPSLKADVALAPWHVGLDQSKITVPSLILADDNDWLAPTGSFAKPFYAGIPESTNKAFIELKNANHFTFTGYNKNIAKYAVSWLKRFVDDDTRYDQFLCPKPATNNEISQSEETCPLH [DP054]
Conditions | purified protein yield per well [µg]
[1] | 39

[3], substrate: cryPow, 40 °C
Conditions | PET hydrolysis
pH 5.5 | 5
pH 6.5 | 7
pH 7.5 | < 3
pH 8.5 | < 3

ATAAPLPHAAADNPYQRGPDPTIAMIESTRGPFATASVSVPPGNGFNGGMIYYPTDTSQGTWGALAIVPGYTALFANEEAWMGPWLSSFGFVVIGVETNSRTDFDTARGTQLLAALDYLTTKSPVHDRVDPNRLSVLGHSMGGGGVVYATEHRPSLKAAVALAPFSPSQNMSTDTVPTMVIGGQNDTVVTPSYVDGLYATLPATTPSDFAQIAGADHVYYTHPNNVEMKLLIPWLKTFVDNDTRYTQFLCPTLPDPSTVSAYRPKCPYVPGGGTTPPPTGNTGPLHAVGAGKCLNAGASGSQAQIQDCTGGASQVWTHTDANQLSVTNGSQLCLDASGQGTSPGTKVITWACNGQPNQQWTVNSDGTVKGVQSGLCLDVSGASTASGALVQLWTCNGQPNQQWRLG [TEP062]
Conditions | purified protein yield per well [µg]
[1] | 85.2

PET hydrolysis, [3], substrate: cryPow
Conditions | pH 4.5 | pH 5.5 | pH 6.5 | pH 7.5
40 °C | < 3 | < 3 | < 3 | < 3
60 °C | < 3 | < 3 | < 3 | < 3

MHPTPDRAKVLPVNVSRGPAEPPAARSARPGGRSAPDGLRPGRRRPVPSSEQGATDVQSHPPTPANRRTRTVATLALALTLVGGAGAIAPTAHAAAGHERGPNPTSAALEASRGPFSVSSTTVSSLSASGFGGGTIYYPNDTGQGTFGGVIVAPGFTASRSTMAWLAERLASHGFVVFNIDTITRSDQPDSRGRQLLAAADHLAEESSPAVRSRLDAGRIGVMGHSMGGGGTLAAAESRPSLQAAVPLTPWHTDKSWGSVQVPTMIIGAENDSVAPVSSHAEPFYNSLSSAQEKAYLELNGASHFAPNSSNSTLAKYSIAWMKRFVDDDLRYDQFLCPAPGRSTRIEEYRSSCPH [TEP081]
Conditions | purified protein yield per well [µg]
[1] | 35.7

[3], substrate: cryPow, 40 °C
Conditions | PET hydrolysis
pH 4.5 | < 3
pH 5.5 | < 3
pH 6.5 | < 3
pH 7.5 | < 3

CATAGSALVSAPSLSGDGSYEVQTYTDFPDVPEFGAATIYYPVGASEPMGGVAIAPGFTEEQRHIAWWGPRLASHGYAVLVLDTNDRRERPDARADALIAGVTLLRAEGRRRGSPLFGRIDAAKMAIMGHSMGGGGALLAADEHSDLIRAAIPFTPWEPETDLRGISAPTLVLAGAADRVAEVEGHAWRHFSMIPESTPKVYMEIAGGDHYIADTTRGMDLATVGRYAIAWLKLYVDGDEQYRDLIYGEIPPADAAKFSRYVVNP [TEP157]
Conditions | purified protein yield per well [µg]
[1] | 80.2

PET hydrolysis, [3], substrate: cryPow
Conditions | pH 4.5 | pH 5.5 | pH 6.5 | pH 7.5
40 °C | < 3 | < 3 | < 3 | < 3
60 °C | < 3 | < 3 | < 3 | < 3

TAGAEPSGGAPAAGGSGCGDVADPAAQGPLHVQTYSSGLRDGPDYGSQTMHYPTDGAPPYPALVIVPGFMSLESSIADHGPHFASHGIVTLTIGTNSTMDQPPARSEALLDALETIRAEHTRAGGPLEGKLDLSRLGVMGWSMGGGGTLITVDDHPELKAAITLCAWNPGQTYRNNQVPTLLFAGTADTLAGG [TEP195]
Conditions | purified protein yield per well [µg]
[1] | 30.1

[3], substrate: cryPow, 40 °C
Conditions | PET hydrolysis
pH 4.5 | < 3
pH 5.5 | < 3
pH 6.5 | < 3
pH 7.5 | < 3

MSNPYQRGPNPTRSALTADGPFSVATYTVSRLSVSGFGGGVIYYPTGTSLTFGGIAMSPGYTADASSLAWLGRRLASHGFVVLVINTNSRFDGPDSRASQLSAALNYLRTSSPSAVRARLDANRLAVAGHSMGGGGTLRIAEQNPSLKAAVPLTPWHTDKTFNTSVPVLIVGAEADTVAPVSQHAIPFYQNLPSTTPKVYVELCNASHIAPNSNNAAISVYTISWMKLWVDNDTRYRQFLCNVNDPALCDFRTNNRHCQLEHHHHHH [LCC-ICCG]
Conditions | melting temperature [C]
[2] | 93.6

PET hydrolysis, [3]
Conditions | pH 4.5 | pH 5.5 | pH 6.5 | pH 7.5 | pH 8.5
substrate: aFilm, 40 °C | 8.5 | 17.4 | 38.1 | 58.9 | 73
substrate: aFilm, 60 °C | 60.8 | 448 | 820 | 965 | 584
substrate: cryPow, 40 °C | 20.1 | 51.5 | 94.5 | 130 | 113
substrate: cryPow, 60 °C | 56.2 | 121 | 208 | 236 | –
